Experimental data reported in the DeepSol protein solubility set.

assay: soluble on expression in E. coli; label from the status in PepcDB or PDB records

| Sequence | soluble on expression in E. coli |
| --- | --- |
| MAHHHHHHMSIPLENWGQLKLSVAKPELKSEDGGDVKRDECVLELLALPKGKAKDNPNYVPRPILSIPISAIASASGTTKNDVSLTMRPAATAGAEDLELRSIRFAVPNVCVGYEETEMAGKVILQDIQSSMMQYQEQFLQRHGSGGQGGKLLALAAMGSGQAKHTDEVVVATFDDVLLSYPSGKYKIVISNYNVVLEDKKKGTSSGLLSFSLSEIQNLFLCDVPVYFSPTEEVDANSLPQYVVLILKNPLKIRSTAYNHVVISCPAGLTLDEEHPWRCELKTQDEINKTLQLPPSKEGEEPPLVPTMSGRVSDILTRTFKAIAKVPAYGGINKEYKSVLTSHSQSSMRCLFHGAEGLLYIVNSGFLYLHRPATRILFNEVARVELDESESGQATFQLTVFATGAKGDDKYVFSGIAKEEKNGLLSYLATKVKVVHTGGDAMESDDDDEKDDTSDEDESDDSDYDDSDTEDDDSSDDGGDHDSSRKRKREDKKHEKDKKHKKDKKHKKDKKHKKDKKHKKDKKHKKDKKHKKDKKHKKDRKHKKDKHEKSDA | soluble |
| GPGSMLRSLFGRPSLAVLNNYGHMARPASPLLCSQRGVFADRVRAGMILKVDKRYYRVLANTRSQKGQNAASFNIKLTEVGTGRKKEVTAGHGHDFAEARAERVRLLFSGFDDDDMACFVYPEHSSDAGKEVNIPGDSLPELQQKFLCCGMPVDVLHIMPDDDESPNEKDIWSEVVMPSNYTYTVEKLTLKGMYKMAAFVECDGIIGVNDSVQVNDKVKVVIKPDGTAAFGGRAT | not soluble |
| MAHHHHHHMVVVKGTEYYDGRTKNYVDYPITDVLQMVGRAGRPQFDTEGVAQVLCHEPKKGFYRKFLYDPFPVESTLHKQLHVHINAEIVAGTITTRQDAVDYLTWTYLFRRLVKNPSYYGVEDRSPKAVTIFISTLVANVLDELEACGCIASPGDDEEDDVSRKVTGMSAAGGTDDEKDPDALTCTVLGRLCSYYYLSHKTVRYFDAHIGADSSHVDVLKALCEAEEFNELPVRHNEDKLNLVLSQLLPFPINPNNAESPHVKAFLLFQAHFERASLPISDYYTDLKSALDNAVRVVQAMVDITSNNGHLYAALRCMSLLQCMVQGIWWHSSTLLQIPHVTAGMLPVIASRCGNLEHAAQVANSSITALQTLKAVLREDCGLSETQLREAMAAIQGFPLIDVRLCLSRTPDRTSNSGDAEHSDDGSKTAADVTYTLTVHLTRLSVHNKHVVAPHFTKPKDEQYWLVVGNEKTGELIALKRVNRLVNCVELTLSFEWDDEWAEFAEGGAVALSLYVVCDSYVGLDQQYNFSVPVPVDM | soluble |
| MAEPAQETPCFSMEKAERAFLDGNFEEALKHFFVCIRMLPVERRGVYEDQFAAALHGWIALDHNNASRAVCLYPQIKELFPETIRTKIALIRAVQGTEQSKWLLNCLPICKDSMDLATKPEDLVALRIARVNLTTIPFPQWHIRMINDVKRNEAFAKALNDTIKSRITVVFDIGSGTGILSAIAARKTNLVTALEENMCLTMISKEVLKRNGVESRVNVHAKNSTYFETCEKADIVVSETLDCCVFGEKIVETFLDAHVRFSHDRTIFIPHQATVYVRLFSCREIFDIHCQDYGGVRYRSEYVKIGESDAEQPYWCASAADYSQFELLSGSVAMHSVDFSSIANLKDSLANSNSFKIRPAKDGVAHGFSVHFTSDLTGHGDNIIDSSKSRAWDLGIIPFKEPCLVKCDKEYEGSWKLLNNRLDVYNDFYDENLQKHEDSLRYETASLDQLQKIRDDSYFKAMMGEIDPIELPFTRDISSSIPAQCVLNTVESQTPIRHLITNFCRYDGTLDQETFFRIEEFVGFRDHVQKIVPTKFRILGHLFYSDRVHFDARPDPSAHCQVDLSTVRSFNLREMRDIRLTQREDIVMASKEFVLYDFNISAEKFRQDTYITVTQDVTVQPTRPIADGVIYEFEILGIRNTKLRPVAAFLFPERVNTNPDMTVVFDLHLGEMLISLKDLP | not soluble |
| GPAIAENLYFQSPNPRPGKPSAPSLALGPSPGASPSWRAAPKASDLLGARGPGGTFQGRDLRGGAHASSSSLNPMPPSQLQLPTLPLVMVAPSGARLGPLPHLQALLQDRPHFMHQLSTVDAHARTPVLQVHPLESPAMISLTPPTTATGVFSLKARPGLPPGINVASLEWVSREPALLCTFPNPSAPRKDSTLSAVPQSSYPLLANGVCKWPGCEKVFEEPEDFLKHCQADHLLDEKGRAQCLLQREMVQSLEQQLVLEKEKLSAMQAHLAGKMALTKASSVASSDKGSCCIVAAGSQGPVVPAWSGPREAPDSLFAVRRHLWGSHGNSTFPEFLHNMDYFKFHNMRPPFTYATLIRWAILEAPEKQRTLNEIYHWFTRMFAFFRNHPATWKNAIRHNLSLHKCFVRVESEKGAVWTVDELEFRKKRSQRPSRCSNPTPGP | soluble |
| MAENVGSDSSEFESISSSQKSYLKNCPFAGHEALPTKSTDSDNTEVLGNQISPAVVKTPILSFSSPTSLDSINDDVFRTPPENASLSSAAESEPRVGVSEIKLQGGSNLTTPFSMAETTLVSSSPSLPAENVRVSESNLKSSSSTAKTTPVSASPSVNARVSESNLNSSSSTTPVSVSPSEKVRVFETTPVSASPSEKVRVFETKCHSDSGDSVPLSSSPPSVAADDVRVPAKHLDSDSSPPTAIGRTMVLVKQRISASDNSASSSASEGTKVSKTENSGEVLPFKEIIEALLRNSGEKLNERDDKVSYVEILKQCGLKFPK | soluble |
| MDALELLINRRSASRLAEPAPTGEQLQNILRAGMRAPDHKSMQPWHFFVIEGEGRERFSAVLEQGAIAAGSDDKAIDKARNAPFRAPLIITVVAKCEENHKVPRWEQEMSAGCAVMAMQMAAVAQGFGGIWRSGALTESPVVREAFGCREQDKIVGFLYLGTPQLKASTSINVPDPTPFVTYFHH | soluble |
| GMIYSKVENFINENKQNAIFTEGASHENIGRIEENLQCDLPNSYKWFLEKYGAGGLFGVLVLGYNFDHASVVNRTNEYKEHYGLTDGLVVIEDVDYFAYCLDTNKMKDGECPVVEWDRVIGYQDTVADSFIEFFYNKIQEAKDDWDEDEDWDD | soluble |
| TPMRSPIIWINGPFGVGKTHTAHTLHERLPGSFVFEPEEMGQALRKLTPGFSGDPQEHPMWIPLMLDALQYASREAAGPLIVPVSISDTARHRRLMSGLKDRGLSVHHFTLIAPLNVVLERLRRDGQPQVNVGTVEDRLNELRGEQFQTHIDTAGLGTQQVAEQIAAQVGLTLAPPPQGALHW | soluble |
| MDHLDDLVDLYEYRVEDLLQGRTPKGGKQALLRLRQLLIQSRLPGPLAKRFRQADARFRAQRRALAPEAQAPVELPAIAVPEEPEPPPPEASPLAALALKVWRLQVERDVKARLEALLAGRREELRLIHAFLDNFALYRETPGFKRDFNLSRFVPTRPIPSLSDTLVDLDDPKVAQALVVDFLETARELPKLLPLPPEETRTYVRRFLNRLLEWEGAYNLPPKPDLPALRRALEEARRLGAGEKEVAQLEERLRKAAQEARRRDLLLEEEKGRFRVALEKVVALLSLLPTPQGETPWPRVPEPGQEEEGLLTLRLAPGPVALGPLTLTLSHAGGTWYLGLEGEDHPLEDTLVLPWEDLEVWAVRENDLLHLRLEARSGLRLYELLAEGRLLAYLLHPGKDYAYLRLLRGLSTRLKGEFQAQAFGPALAEKYRKAPEEALQDFARKGLELTLKRLGQADPLPLLQEVGQALGLEAEAQTLGQALREYLGRRPPTRETLGGEVHFLALTPEPQALKLDQHVLSVRLKEDAVYLGQAGEVPRRLKDLLVYRLGERALVLAREGRRLAYTLLPLP | soluble |
| MNRRDFIKAASGGALLLGAAPSVSHAAAENRPPIPGSLGMLYDSTLCVGCQACVTKCQDINFPARNPEGEQTWSNNDKLSPYTNNIIQVWRSGTGVNKDQEENGYAYIKKQCMHCVDPNCVSVCPVSALKKDPKTGIVHYDKDVCTGCRYCMVACPYNVPKYDYNNPFGALHKCELCNQKGVERLDKGGLPGCVEVCPAGAVIFGTREELMAEAKKRLALKPGSEYHYPRQTLKTDDTYLHTVPKYYPHLYGEKEGGGTQVLVLTGVPYEDLDLPKLDDLSTGARSEHVQHTLYKGMILPLAALAGLTVLVRRNSKNDHHDGGDDHES | not soluble |
